From patent US20210395773A1, “IN VIVO CONTROLLED COMBINATION THERAPY FOR TREATMENT OF CANCER” (PRECIGEN, INC., priority 2018, published 2021)
Marks after values point to notes of the source that are not given here.

Assays:
GL-261 medullary glioma = details: vehicle mOS 16 days
Excerpt: Ad-RTS-hIL-12 (Ad) is a recombinant, adenoviral-delivered, gene therapy for expression of interleukin-12 (IL-12) under the control of an orally administered activator ligand, veledimex (V), acting in concert with a ligand-inducible gene switch (also referred to as “RTS®”).

[1] = Phase 1 Main Study: veledimex in plasma and tumor; type: in vivo, human
Protocol: FIGS. 21A-21D show a series of graphs depicting veledimex, IL-12 and IFN-γ concentrations upon treatment with veledimex. […] Each symbol represents plasma from a single patient. […] Veledimex was administered to each patient approximately 3 hours before the start of the craniotomy. Serum and tumor at the time of resection were then assayed for veledimex levels.
This study is investigating two intratumoral Ad-RTS-hIL-12 doses (2×10^11 vp or 1×10^12 vp) and escalating veledimex doses (10 mg to 40 mg) to determine the safe and tolerable dose based on the safety profiles observed in the presence of variable corticosteroid exposure. Group 1 received one veledimex dose before a standard-of-care resection procedure, Ad was administered by freehand intratumoral injection, then continued with oral V QD for 14 days. Subjects not scheduled for tumor resection (Group 2) received Ad-RTS-hIL-12 (2×10^11 vp or 1×10^12 vp) by stereotactic injection and then continued on oral veledimex for 14 days.

[2] = Veledimex levels in blood and CSF after oral gavage (blood-brain barrier crossing); type: in vivo, C57BL/6 mice; details: PO 450 or 1,200 mg/m2/day; normal C57BL/6 and orthotopic GL-261 glioma mice; 24 hours post-veledimex
Protocol: To generate orthotopic GL-261 glioma mice, a group of C57BL/6 mice received 1×10^5 GL-261 glioma cells via intracranial injection ˜2 mm distal to the intersection of the coronal and sagittal suture. On day 5, the animals were randomly assigned to one of the treatment groups. GL-261, a murine glioma tumor cell line, was purchased from American Type Culture Collection (Manassas, Va.).
Veledimex was administered to normal C57BL/6 mice or orthotopic GL-261 glioma mice via oral gavage (PO) at 450 mg/m2/day or 1,200 mg/m^2/day. Terminal blood and CSF were collected for normal C57BL/6 mice or orthotopic GL-261 glioma mice after 2 days of treatment, and for orthotopic GL-261 glioma mice after 13 days of treatment.

IL-12 = assay: Phase 1 Ad+V with nivolumab in rGBM: serum IL-12; type: in vivo, human
Protocol: (§1) Ad was administered by intratumoral injection (using a dose of 2×10^11 vp (2e11 vp)) along with daily veledimex (V) (at doses of 10-20 mg) QDx15 PO with nivolumab intravenous infusions (at doses of 1-3 mg/kg) at Day (−)7 (i.e., 7 days prior to administration of Ad+V), at Day 15 (after administration of Ad+V), then Q2W (i.e., once every 2-weeks).

[3] = Phase 1 Ad+V with nivolumab in rGBM: safety (adverse events); type: in vivo, human; details: by relatedness
Protocol: as §1

[4] = system: cytotoxic T cells and Tregs in peripheral blood; assay: Phase 1 Ad+V with nivolumab in rGBM: peripheral blood flow cytometry; type: in vivo, human; details: after nivolumab alone
Protocol: Methods: An open label, dose escalation Phase 1 study evaluating safety and tolerability of local, inducible IL-12 expression in combination with nivolumab in adult subjects with recurrent glioblastoma (rGBM) was commenced. Ad was administered by intratumoral injection (using a dose of 2×10^11 vp (2e11 vp)) along with daily veledimex (V) (at doses of 10-20 mg) QDx15 PO with nivolumab intravenous infusions (at doses of 1-3 mg/kg) at Day (−)7 (i.e., 7 days prior to administration of Ad+V), at Day 15 (after administration of Ad+V), then Q2W (i.e., once every 2-weeks).

[5] = Cohort 1: Ad + V (10 mg) Nivolumab (1 mg/kg) N = 3
[6] = Cohort 2: Ad + V (10 mg) Nivolumab (3 mg/kg) N = 3
[7] = Cohort 3: Ad + V (20 mg) Nivolumab (3 mg/kg) N = 2

Cn1nnc2c(C(N)=O)ncn2c1=O [temozolomide]
mOS (GL-261 medullary glioma): 25 days

CCC[C@@H](N(NC(=O)c1cccc(OC)c1CC)C(=O)c1cc(C)cc(C)c1)C(C)(C)C [veledimex, (R)—N′-(3,5-dimethylbenzoyl)-N′-(2,2-dimethylhexan-3-yl)-2-ethyl-3-methoxybenzohydrazide]
plasma and tumor V peak PK levels versus dose ([1]; V 10-40 mg): dose dependent | Kp ([1]; human, tumor (relative to plasma), oral, Main Study, tumor vs plasma at resection, about 3 hours after V, read-out: V tumor penetration): ~0.4 | crossing of the blood-brain-barrier ([1]; rGBM patients): crosses the blood-brain-barrier | crossing of the blood-brain barrier by orally administered veledimex [2]: crosses the blood-brain barrier

Nivolumab: antibody that binds PD-1; heavy and light chains SEQ ID NO: 10 and 11
peripheral IL-12 at Day 0 (median) (IL-12; after nivolumab alone (Day -7 dose), median baseline 0.9 pg/ml): 1.0 pg/mL | impact of pre-dosing on cytokine levels prior to Ad+V (IL-12; nivolumab Day -7): did not have an impact on cytokine levels | Related ≥ Grade 3 AEs: ALT increased [3, 5]: 0 | Related ≥ Grade 3 AEs: Brain oedema (cerebral edema) [3, 5]: 1 (33%) | Related ≥ Grade 3 AEs: Lipase increased [3, 5]: 0 | Related ≥ Grade 3 AEs: Lymphocyte count Decreased [3, 5]: 0 | Related ≥ Grade 3 AEs: ALT increased [3, 6]: 0 | Related ≥ Grade 3 AEs: Brain oedema (cerebral edema) [3, 6]: 0 | Related ≥ Grade 3 AEs: Lipase increased [3, 6]: 1 (33%) | Related ≥ Grade 3 AEs: Lymphocyte count Decreased ([3]; Cohort 2: Ad + V (10 mg) Nivolumab (3 mg/kg) N = 3, one AE related to both): 1 (33%)* | Related ≥ Grade 3 AEs: ALT increased [3, 7]: 0 | Related ≥ Grade 3 AEs: Brain oedema (cerebral edema) [3, 7]: 0 | Related ≥ Grade 3 AEs: Lipase increased [3, 7]: 0 | Related ≥ Grade 3 AEs: Lymphocyte count Decreased [3, 7]: 0 | related SAEs ([3]; Cohorts 1-3): One SAE of brain oedema (cerebral edema) was considered related to nivolumab alone | Tregs (FoxP3) at Day 0 ([4]; baseline 1.5%): 0.8% | peripheral cytotoxic T cells CD3+CD8+ at Day 0 ([4]; median baseline 23%): 26%
